Data on five molecules can be found in US11608371 (PETMEDIX, dated 2023).

One may read the Kd as a measure of binding affinity in units of concentration.

Read-outs that look alike come from different tables or passages of the source.

The target in assay [1] is Canine FcRn-B2M recombinant protein (Immunitrack) (canine). As to the kind of experiment: SPR (Biacore 8K), canine FcRn-B2M amine-coupled on CM5 chip, running buffer pH 6, steady state affinity.
The target in assay [2] is T1, Murine FcRn-B2M recombinant protein (Immunitrack) (murine, UniProt Q61559 22-297; P01887 21-119, limits assumed).
T1 construct: Bought reagent, amine-coupled to a CM5 chip; also called murine neonatal receptor
T1 sequence (looked up): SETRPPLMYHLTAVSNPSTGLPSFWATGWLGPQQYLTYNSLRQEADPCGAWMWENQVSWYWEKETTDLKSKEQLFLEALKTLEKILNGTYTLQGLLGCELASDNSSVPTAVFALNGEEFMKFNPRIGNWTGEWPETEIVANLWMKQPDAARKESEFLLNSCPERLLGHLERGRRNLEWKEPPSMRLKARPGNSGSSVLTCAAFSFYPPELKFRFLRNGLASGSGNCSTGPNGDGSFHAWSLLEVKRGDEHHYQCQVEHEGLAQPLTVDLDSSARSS
T1 sequence (b2m, looked up): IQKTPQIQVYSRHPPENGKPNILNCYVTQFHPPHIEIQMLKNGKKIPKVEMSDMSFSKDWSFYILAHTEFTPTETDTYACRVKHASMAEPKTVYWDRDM
The assay can be described thus: SPR (Biacore 8K), murine FcRn-B2M amine-coupled on CM5 chip, running buffer pH 6, steady state affinity. (In general: SPR reads the build-up and loss of mass on a sensor chip optically.)
Method: (§1) Briefly, CM5 Sensor Chip (Cytiva) was docked into Biacore 8K, equilibrated for 30' at RT and then Running Buffer (10 mM HEPES pH6 150 mM NaCl 3 mM EDTA and 0.005% Tween20) was applied to the SPR chip surface.
(§2) Canine and murine FcRn-B2M recombinant protein (Immunitrack, ITF12-ITF08) was diluted into 10 mM acetate buffer pH4.5 at 4 nM (1:2000 dilution from stock) and immobilised using standard amine coupling reaction.

In assay [3] the target is T2, Human nerve growth factor (NGF) (human, UniProt P01138 122-241). The assay can be described thus: cell-based or functional assay.
Assay [4] has as its target T2, Human nerve growth factor (NGF). As to the kind of experiment: SPR (Biacore 8K), PetML119 captured on Protein A chip, human NGF as analyte, kinetics affinity.
Method: (§3) Briefly, Protein A Sensor Chip (Cytiva) was docked into Biacore 8K, equilibrated for 30' at RT and then Running Buffer (10 mM HEPES pH7.4 150 mM NaCl 3 mM EDTA and 0.005% Tween20) was applied to the SPR chip surface.
(§4) These have been immobilised using 90 sec association at 10 uL/min as capturing step, followed by injection of running buffer to remove any unbound product.
(§5) Kinetics were assessed using multi-cycle kinetics with capture step method (30 sec association-120 sec dissociation) followed by regeneration step (0.1M Glycine pH2.2 contact time 60 sec FR 30 uL/min).
In assay [5] the target is T3, Rat nerve growth factor (NGF) (rat, UniProt P25427 122-241).
T3 construct: Bought reagent; also called rat NGF
The assay can be described thus: SPR (Biacore 8K), PetML119 captured on Protein A chip, rat NGF as analyte, kinetics affinity.
Method: as §3, §4, §5

Assay [6] addresses T1, Murine FcRn-B2M recombinant protein …. As to the kind of experiment: SPR (Biacore 8K), murine FcRn-B2M amine-coupled on CM5, pH 6, multi-cycle kinetics; reference not named, taken as PetML119 (wild type Fc).
Method: as §1, §2
Assay [7] has the same target. The assay can be described thus: SPR (Biacore 8K), murine FcRn-B2M amine-coupled on CM5 chip, running buffer pH 6, steady state affinity. This is another data set of the same source.
Method: as §1, §2
The target of assay [8] is T2, Human nerve growth factor (NGF). As to the kind of experiment: SPR (Biacore 8K), human NGF as analyte on Bedinvetmab, kinetics affinity, 1:1 binding fit.

T2 sequence (P01138 122-241 limits assumed): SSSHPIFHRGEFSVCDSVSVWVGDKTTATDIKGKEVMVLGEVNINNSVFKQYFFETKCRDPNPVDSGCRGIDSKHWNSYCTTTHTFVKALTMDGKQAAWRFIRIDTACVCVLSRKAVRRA
T3 sequence (P25427 122-241 limits assumed): as the sequence (P01138 122-241 limits assumed) above, with S3T, I6V, R9M, M37T, D60A, D65E, M92T, G94D, V117A, A120G counted along it

Consider “PetML122 (canine p75NTR ECD - canine Fc YTE protein fusion) (Fc fusion)”, for which, in assay [1], the Kd worked out at 400 nM.
With “PetML119 (canine p75NTR ECD - canine IgGB wt Fc protein fusion) (Fc fusion)”, the Kd in assay [1] stood at 6000 nM.

B1: PetML119 (canine p75NTR ECD - canine IgGB wt Fc protein fusion) (Fc fusion)
chain: KEACPTGLYTHSGECCKACNLGEGVAQPCGANQTVCEPCLDSVTFSDVVSATEPCKPCTECVGLQSMSAPCVEADDAVCRCAYGYYQDETTGRCEACRVCEAGSGLVFSCQDRQNTVCEECPDGTYSDEANHVDPCLPCTVCEDTERQLRECTRWADAECEEIPGGGGRENGRVPRPPDCPKCPAPEMLGGPSVFIFPPKPKDTLLIARTPEVTCVVVDLDPEDPEVQISWFVDGKQMQTAKTQPREEQFNGTYRVVSVLPIGHQDWLKGKQFTCKVNNKALPSPIERTISKARGQAHQPSVYVLPPSREELSKNTVSLTCLIKDFFPPDIDVEWQSNGQQEPESKYRTTPPQLDEDGSYFLYSKLSVDKSRWQRGDTFICAVMHEALHNHYTQKSLSHSPGK
notes: also called PetMI119; Fc-Bwt
B1: the figures for the Kd in assay [2], in assay [4] and in assay [5] were 2000 nM, 0.12 nM and 0.12 nM, respectively. Moreover, the “IC50 (nM), inhibition of TF-1 cell proliferation” value (“IC50 (nM), inhibition” for short) in assay [3] is 15.2 nM.

B2: PetML122 (canine p75NTR ECD - canine Fc YTE protein fusion) (Fc fusion)
chain: KEACPTGLYTHSGECCKACNLGEGVAQPCGANQTVCEPCLDSVTFSDVVSATEPCKPCTECVGLQSMSAPCVEADDAVCRCAYGYYQDETTGRCEACRVCEAGSGLVFSCQDRQNTVCEECPDGTYSDEANHVDPCLPCTVCEDTERQLRECTRWADAECEEIPGGGGRENGRVPRPPDCPKCPAPEMLGGPSVFIFPPKPKDTLYITREPEVTCVVVDLDPEDPEVQISWFVDGKQMQTAKTQPREEQFNGTYRVVSVLPIGHQDWLKGKQFTCKVNNKALPSPIERTISKARGQAHQPSVYVLPPSREELSKNTVSLTCLIKDFFPPDIDVEWQSNGQQEPESKYRTTPPQLDEDGSYFLYSKLSVDKSRWQRGDTFICAVMHEALHNHYTQKSLSHSPGK
notes: Same construct as PetML119, but with the YTE triple mutation in the Fc; also called PetMI122; Fc-B-YTE
In the case of B2, the “fold increase in binding affinity” value in assay [6] is 10 fold. The Kd in assay [7] turned out to be 90 nM. The “IC50 (nM), inhibition” value in assay [3] amounted to 5.91 nM.

B3: Bedinvetmab (antibody, V domains shown)
VH: EVQLVESGGDLVKPGGSLRLSCVASGFTFSSHGMHWVRQSPGKGLQWVAVINSGGSSTYYTDAVKGRFTISRDNAKNTVYLQMNSLRAEDTAMYYCAKESVGGWEQLVGPHFDYWGQGTLVIVSS
VL: QSVLTQPTSVSGSLGQRVTISCSGSTNNIGILGASWYQLFPGKAPKLLVYGNGNRPSGVPDRFSGADSGDSVTLTITGLQAEDEADYYCQSFDTTLGAHVFGGGTHLTVL
For B3, the Kd in assay [8] stood at 0.073 nM. For the same molecule, the “IC50 (nM), inhibition” value in assay [3] is 1.65 nM.
